Results taken from patent US6569833B1, “Cyclin dependent kinase binding peptides” (Cyclacel Limited, priority 1995, dated 2003).
Blank lines part the entries; values can stand above or below the molecule they belong to.

How the values were obtained:
cdk4-cyclin D [1] = target: T1, cdk4-cyclin D (Homo sapiens, UniProt P11802); experiment: pRb phosphorylation in vitro by Sf9 lysates containing cdk4 and cyclin D; format: biochemical; parameters: dose or concentration left out as unconfirmed; details: full length Rb protein
T1 construct: made in house; host or cells: Sf9 insect cells infected with baculovirus (separate crude lysates for cdk4 and cyclin D, mixed in the assay)
Experimental: Peptides were incubated at a concentration of […] in a buffer containing 50 mM Hepes pH 7.4, 10 mM MgCl2, 2.5 mM EGTA, 1 mM DTT, 10 mM β-glycerophosphate, 1 mM NaF and 1 mM Na3VO4 and […] of extract from Sf9 insect cells infected with human cdk4-expressing baculovirus lysed in 10 mM Hepes pH 7.4, 10 mM NaCl, 1 mM EDTA and 0.5 mM PMSF. The mixture was incubated for 60 minutes on ice. Human cyclin D containing Sf9 lysate ([…]) prepared as above was added together with 0.6 mg of purified recombinant full length Rb protein and 2.5 mM ^32P ATP in a final concentration of […] ATP and incubated for 10 minutes at +30° C., the reaction was terminated by addition of SDS loading buffer and loaded onto 8% SDS polyacrylamide gels. The gels were either exposed to autoradiographic film (FIG. 2A) or the levels of pRb phosphorylation were estimated by a Phosphoimager (FIG. 2B).

cdk4 [2] = target: T2, cdk4 (Homo sapiens, UniProt P11802); experiment: Peptide precipitation of in vitro translated 35S-labelled cdk4 from reticulocyte lysate; format: binding; details: biotinylated peptide on streptavidin agarose beads, densitometry
T2 construct: host or cells: coupled in vitro transcription/translation in rabbit reticulocyte lysate
Experimental: (§1) A 20 aa peptide library with a 5 aa overlap of p16 (apart from the first 8 N-terminal residues) was synthesised adding a SGSG linker to the N-terminus to which a biotin group was coupled. The alanine substitution series of peptide 6 was synthesised in the same way. The peptides were coupled to streptavidin immobilised on agarose beads and washed 4 times in PBS before incubating for 1 hour on ice with rabbit reticulocyte lysate (Promega) containing ^35S-methionine labelled cdk4 or cdk6. The beads were washes 4 times in 1.2×PBS with 0.2% Triton X-100 before addition of SDS loading buffer and applied to 12% SDS polyacrylamide gels. The gels were exposed to an autoradiography film and the bands corresponding to cdk4 and cdk6 were analysed by densitometry.
(§2) To study the binding of peptides to cdk4 and cdk6 we expressed the proteins in a coupled in vitro reticulocyte translation system in the presence of ^35S labelled methionine. A biotin group coupled to a Ser-Gly-Ser-Gly-linker at the N-terminus of the peptides was coupled to streptavidin coated agarose beads and incubated with the cell lysates.

cdk6 = target: T3, cdk6 (Homo sapiens, UniProt Q00534); experiment: Peptide precipitation of in vitro translated 35S-labelled cdk6 from reticulocyte lysate; format: binding; details: biotinylated peptide on streptavidin agarose beads, densitometry
T3 construct: host or cells: coupled in vitro transcription/translation in rabbit reticulocyte lysate
Experimental: as §1, §2

cdk4-cyclin D [3] = target: T1, cdk4-cyclin D; experiment: pRb phosphorylation in vitro by Sf9 lysates containing cdk4 and cyclin D; format: biochemical; details: for block of cdk4-cyclin D dependent pRb phosphorylation: 50 μM peptide, dilution series
cdk4 [4] = target: cdk4 (human, UniProt P11802 1-303); experiment: cell-based or functional assay
HaCaT cells = experiment: Cell cycle inhibition: S-phase entry of serum-starved cells by BrdU incorporation; format: cell-based, human; details: 10 μM peptide concentration
Experimental: Cells were synchronised in G0 by serum starvation for 72 hours before serum and 10 μM BrdU were added. […] The data presented show % inhibition of cells entering S-phase after incubation with peptide 6 coupled to Penetratin in relation to cells incubated with serum only.
A cysteine residue was added to the C-terminus of peptide 6 and used for coupling to the 16 amino acids long Penetratin peptide (amino acid sequence RQIKIWFQNRRMKWKK)(SEQ ID NO:3) of the Antennapedia homeodomain (24) (Appligen) by means of a disulzhide bond. Cells were seeded on cover slips prior to starvation for 72 hours in DMEM medium without FCS. The medium was substituted by DMM containing 10% FCS and BrdU. The coupled peptides were added at different time points after serum stimulation. The number of cells entering S-phase was determined by estimating the numbers of cells incorporating BrdU at 24 hours by fixing the cells on cover slips in acetone/methanol (1:1), incubating in 1M HCl for 30 minutes, washing 6 times in PBS and then incubating with anti-BrdU monoclonal antibody and Texas Red conjugated secondary antibody and mounted in Mowiol containing Hoescht. At least six different areas on three different cover slips were counted for each single experiment which was repeated at least two times. The values presented in FIG. 3A show one representative experiment.

[5] = target: peptide 10 of the p16 20 aa peptide library
[6] = target: peptide 1 of the p16 20 aa peptide library
[7] = target: T4, peptide 6 with residue 94 substituted by alanine
T4 chain: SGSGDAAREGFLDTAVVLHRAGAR

[8] = target: T5, peptide 6 (amino acids 84 to 103 of p16), biotinylated via N-terminal SGSG linker
T5 chain: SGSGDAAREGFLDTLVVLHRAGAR

[9] = target: T6, peptide 6 with aspartic acid 92 substituted by alanine
T6 chain: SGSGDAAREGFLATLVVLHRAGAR

T3 sequence (Q00534 whole entry): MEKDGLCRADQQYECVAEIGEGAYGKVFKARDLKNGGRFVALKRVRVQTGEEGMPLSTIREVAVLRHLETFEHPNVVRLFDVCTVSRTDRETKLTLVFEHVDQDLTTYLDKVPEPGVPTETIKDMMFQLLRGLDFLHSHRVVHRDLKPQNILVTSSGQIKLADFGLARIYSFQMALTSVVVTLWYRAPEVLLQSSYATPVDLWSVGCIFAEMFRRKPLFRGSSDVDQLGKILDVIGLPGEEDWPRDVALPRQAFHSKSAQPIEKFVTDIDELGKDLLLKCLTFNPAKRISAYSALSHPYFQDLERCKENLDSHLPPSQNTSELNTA

Molecule: Ala92: peptide 6 in which aspartic acid 92 is substituted by alanine (SGSGDAAREGFLATLVVLHRAGAR)
inhibition of pRb phosphorylation (cdk4-cyclin D [1]): even more efficiently than the wild type peptide 6
relative binding to in vitro expressed cdk4 (cdk4 [2]): more potent binding
relative binding to in vitro expressed cdk6 (cdk6): more potent binding
block of cdk4-cyclin D dependent pRb phosphorylation (cdk4-cyclin D [3]; listed as Ala92 peptide): almost completely blocked
block of cdk4-cyclin D dependent pRb phosphorylation (cdk4-cyclin D [3]; listed as Ala-92): nearly complete

Molecule: Ala94: peptide 6 with the single alanine substitution at residue 94 (SGSGDAAREGFLDTAVVLHRAGAR)
block of cdk4-cyclin D dependent pRb phosphorylation (cdk4-cyclin D [3]): completely inactivates the function of peptide 6

Molecule: DAAPEGFLDTLVVLHRAGAR [R87P, p16 84-103 peptide with the R87P substitution]
inhibition of pRb phosphorylation (cdk4-cyclin D [1]): does not hamper the function of the peptide

Molecule: EGFLDTLVVLHRAGAR [peptide 7, 16 aa peptide of the p16 deletion series]
inhibition of pRb phosphorylation (cdk4-cyclin D [1]): able to exert a biological effect which is the same or analogous to that of full length p16

Molecule: FLDTLVVLHRAG [peptide 9, 12 aa peptide of the p16 deletion series]
inhibition of pRb phosphorylation (cdk4-cyclin D [1]): able to exert a biological effect which is the same or analogous to that of full length p16

Molecule: FLDTLVVLHRAGAR [peptide 8, 14 aa peptide of the p16 deletion series]
inhibition of pRb phosphorylation (cdk4-cyclin D [1]): able to exert a biological effect which is the same or analogous to that of full length p16

Molecule: His-tagged p16 protein with the VV.95,96AA mutations (from UniProt P42771 1-156)
50% kinase inhibitory concentration, fold increase against wild type His-tagged p16 (cdk4 [4]): 5 fold

B1: cdk4 (protein)
chain: MATSRYEPVAEIGVGAYGTVYKARDPHSGHFVALKSVRVPNGGGGGGGLPISTVREVALLRRLEAFEHPNVVRLMDVCATSRTDREIKVTLVFEHVDQDLRTYLDKAPPPGLPAETIKDLMRQFLRGLDFLHANCIVHRDLKPENILVTSGGTVKLADFGLARIYSYQMALTPVVVTLWYRAPEVLLQSTYATPVDMWSVGCIFAEMFRRKPLFCGNSEADQLGKIFDLIGLPPEDDWPRDVSLPRGAFPPRGPRPVQSVVPEMEESGAQLLLEMLTFNPHKRISAFRALQHSYLHKDEGNPE
pRb phosphorylation [5]: do not affect pRb phosphorylation
pRb phosphorylation [6]: do not affect pRb phosphorylation
pRb phosphorylation (dilution series) [7]: the single substitution Ala94 completely inactivates the function of peptide 6 in this assay
level of pRb phosphorylation by Sf9 lysates containing cdk4 and cyclin D [8]: significantly reduces the level of pRb phosphorylation
phosphorylation of the full length Rb protein by Sf9 lysates containing cdk4 and cyclin D [9]: inhibits phosphorylation of the full length Rb protein even more efficiently than the wild type peptide 6

Continued, in another order:

inhibition of pRb phosphorylation (cdk4-cyclin D [1]): severely reduced
relative binding to in vitro expressed cdk4 (cdk4 [2]): severely reduced
relative binding to in vitro expressed cdk6 (cdk6): severely reduced
Molecule: AREGFLDTLVVLHRAGAR (SGSGAREGFLDTLVVLHRAGAR) [peptide 6 in FIGS. 5A-C, deletion series peptide, 2 residues removed at the N-terminus of the p16 84-103 peptide]

inhibition of pRb phosphorylation (cdk4-cyclin D [1]): inhibit pRb phosphorylation
relative binding to in vitro expressed cdk4 (cdk4 [2]): binds
relative binding to in vitro expressed cdk6 (cdk6): binds
Molecule: DAARAGFLDTLQTLLEFQAD (SGSGDAARAGFLDTLQTLLEFQAD) [p18 peptide, peptide derived from p18 corresponding to the 84-103 region of p16]

inhibition of pRb phosphorylation (cdk4-cyclin D [1]): inhibit pRb phosphorylation
relative binding to in vitro expressed cdk4 (cdk4 [2]): binds
relative binding to in vitro expressed cdk6 (cdk6): binds
Molecule: DAAREGFLDTLVVLHGSGAR (SGSGDAAREGFLDTLVVLHGSGAR) [mouse p16 peptide, peptide derived from mouse p16 corresponding to the 84-103 region of p16]

inhibition of cdk-cyclin D kinase activity (cdk4-cyclin D [3]; 36aa Penetratin-linked peptides, increasing concentrations (FIG. 6A)): less active
Molecule: peptide 21: 36aa synthetic peptide (Penetratin sequence plus 20aa p16 peptide) that carries the VV.95,96AA mutation (RQIKIWFQNRRMKWKKDAAREGFLDTLAALHRAGAR)
block of S-phase entry (HaCaT cells): significantly less active in vivo
block of S-phase entry (HaCaT cells; listed as pep21): only marginal effect

50% kinase inhibitory concentration, fold increase (cdk4 [4]): ~5 fold
Molecule: RQIKIWFQNRRMKWKKDAAREGFLDTLAALHRAGAR [peptide 21 (36 aa synthetic peptide, Penetratin-p16 peptide carrying the VV.95,96AA mutation)]
